Substrate in the series: C[C@@H]1O[C@@H](Oc2ccc([N+](=O)[O-])cc2)[C@@H](O)[C@H](O)[C@@H]1O
Briefly: purified protein. Format: biochemical, Paenibacillus thiaminolyticus. Particulars: 50 mM phosphate pH 7.0, 37 °C (standard assay), substrate 0.01-35 mmol/L.

B1: α-L-fucosidase iso2 (Paenibacillus thiaminolyticus) (protein)
chain: MRYRQVHLDFHTSEHISDIGRNFSKKNFQEMLQLGHVNSITVFAKCHHGWAYFPSATNEIHPRLDFDLLGAQIEAAHEIGVKVPIYISVGFDEKLAWEKPQWLMRDEADRMNWVDSFMKPGYHQFCLNTPYLDLVIEQVQEVVRKYDGDGIFLDIVGERTCYCTTCLKQMQADGLDPHNKEDVIANGRRIYANYTTRIREAIDAIKPGLPVFHNAGHIHQGRRDLMGMNSHLELESLPTGGWGYDHFPLSARYAQPTGFHFLGMTGKFHTFWGEFGGYKHPNALRYETALSLANGARCSIGDQLHPGGQMDRATYELIGKAYAEVEAKEAWCVNAVNLADVALLTVEAAGVQQESGAMYSGKVDMGAVRMLLEGKILFDIVDLESDWSGYKVLILPDSIVMKDTILPKVEAFLAAGGKVLASGRSGLNVELTRQMLPLGFTDSGLNPFRPDYFRPLCDGMANLGEAAYVMYGDGRRIELTDGTELGRREDPYFNRQAFRFCSHQHAPSSEQEGGPGMVESAQGIYIAWNVFEDYATKGSLILKEMVLFALRRLLGEQITLKTTLPAQGVTTLQHQAAERRYINHLLYASPVKRGERVEIIEDMIPLQQVEVQLQLPVTDVKRVYLAPQMTEIEFKASGGDVQFTVPQLECHQMVVVEYNE
notes: His-tagged fusion from pET16b-αLF2 (NdeI/XhoI), tag kept; E. coli BL21(DE3); Ni-NTA; primers encode start MRYRQVH and end VVEYNE
B1: the Km – broadly, the substrate concentration at which the rate is half of its maximum – was 520 ± 50 µM; the kcat (as a rule, the maximal rate divided by the concentration of active sites) came to 111 ± 3 s⁻¹; the kcat/Km was 213 ± 30 (mmol/L)^-1 s^-1.

Source of the values: article PMC4445282, “Alpha-L-Fucosidase Isoenzyme iso2 from Paenibacillus thiaminolyticus” (BMC Biotechnology, 2015).
